Experimental data from the supplement of paper PMC9170038.

Test system: MS2 coat protein
Assay: apparent KD of MS2 coat protein; designed switch direction (-1 OFF switch, 1 ON switch): 1; higher = weaker reporter binding
Outline: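 Stalled E. coli RNA polymerase transcribed designed RNA switches on Illumina chips, which were then titrated with SNAP-549-labelled MS2 coat protein, doubling from 0.7 or 1.5 nM to 3 µM. Steps lasted from 0.8–1.5 h at the lowest concentration to 10–20 min at the highest. The apparent KD is each design's median over clusters of curve-fitted normalised fluorescence.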

[1] = Eterna round: R95, input ligand: FMN 200 uM
[2] = Eterna round: R95, input ligand: microRNA oligo, concentration not stated
[3] = Eterna round: R95, input ligand: none
[4] = input ligand: microRNA oligo, concentration not stated

Sequence | apparent KD of MS2 coat protein [1] [nM] | apparent KD of MS2 coat protein [2] [nM] | apparent KD of MS2 coat protein [3] [nM] | apparent KD of MS2 coat protein (input ligand: FMN 200 uM) [nM] | apparent KD of MS2 coat protein [4] [nM] | apparent KD of MS2 coat protein (input ligand: none) [nM]
AGUCCAGCCUGAGCUGGACAAAAGCAUGUACAUGAGGAUCACCCAUGUUUAUGUACAAGCUUUUUGCUCGUCUUAAA [Zipper 52 - 12] (puzzle: Sensor for hsa-mir-208a) | 257 | 16.2 | 313 |  |  | 
AGUCCAGCCUGAGCUGGACAAGAGCAUGUACAUGAGGAUCACCCAUGUCAUGUACAAGCUUUUUGCUCGUCUUAAUA [Zipper 49 - 2] (puzzle: Sensor for hsa-mir-208a) | 470 | 14.9 | 530 |  |  | 
AGUCCUGAAUAAAUUAAACAGAGACAUGUACAUGAGGAUCACCCAUGUCAUGUGCAAGUUUUUUGCUCGUCAUAUAA [Sensorship 17 - Jieux - Sensor for hsa-mir-208a] (puzzle: Sensor for hsa-mir-208a) | 13.7 | 10.7 | 14.9 |  |  | 
AGUGAACAUGAGGAUCACCCAUGUGAGAGAAGUGUAGGAUAUGUGAGGAGCAGAGGAGGGACAGAAGGACAUGGAG [JR_SS!_Sub074] (puzzle: Same State 1) | 32.1 | 38 | 51.8 |  |  | 
AUAAAACACAUGAGGAUCACCCAUGUGGCCGUAGUCGGCACACAGGAUAUCAAGCAACUAGAGCUUGAGAAGGGUGAGACAAAA [Raar] (Eterna round: R96, puzzle: Same State NG 3) |  |  |  | 179 | 4.09 | 250
AUAAAACAUGAGGAUCACCCAUGUCAACAAAGUCGAGGAUAUGGGCAAAUAAAAUAAGAACCAGAAGGUGAAUAAU [salish99_ss1_r3_032] (puzzle: Same State 1) | 131 | 31.5 | 146 |  |  | 
AUAAAACAUGAGGAUCACCCAUGUCAACAAAUUCGAGGAUAUGGGCAAAUAAAAUAAGAACCAGAAGGCGAAUAAU [salish99_ss1_r3_038] (puzzle: Same State 1) | 18.1 | 104 | 86.1 |  |  | 
AUAAACAGGCUAGGAUAUCCGGAAACUACAGGGCACGACCCUGUGGACAUGAGGAUCACCCAUGUGGAGAAGGAGCCACAUGAA [Edlatibi] (Eterna round: R96, puzzle: Same State NG 2) |  |  |  | 15.1 | 108 | 152
AUAAGAAACACAGGAUAUACCGCACUUAACGCGGUAGAAGGGUGGGACAUGAGGAUCACCCAUGUGGCCCGGGCGCCGGACCGC [Edquzative] (Eterna round: R96, puzzle: Same State NG 1) |  |  |  | 556 | 10 | 122
AUAAGUUCGAUGCUCGUCUCUCCGUACAAACAUGAGGAUCACCCAUGUGGUCAGGAAGUAGCCCGACCAGUAUGGCC [Leedqu] (puzzle: Sensor for hsa-mir-208a) | 29 | 24.6 | 34 |  |  | 
AUAAUACAUGAGGAUCACCCAUGUAAUUUAACUUGUAAGAUCAAGGAUAUCAGCUCGAAUAGAGCUGAGAAGGUGAUCACAUGU [SSNG3/20-A1] (Eterna round: R96, puzzle: Same State NG 3) |  |  |  |  | 70.7 | 
AUACAUGAGGAUCACCCAUGUAAUUAAUUAACUAGUAAGAUCUAGGAUAUCAGCUCGUUUAGAGCUGAGAAGGAGAUCACAUGU [SSNG3/21-A3] (Eterna round: R96, puzzle: Same State NG 3) |  |  |  |  | 28.8 | 
AUACCGUGCCAAGGAUAUGGUGUAAACACAUGAGGAUCACCCAUGUCAGAGAGUCGAGCGACUAGCUAGAAGGUGGUAUGGGAA [Eternabot solution 9] (Eterna round: R96, puzzle: Same State NG 2) |  |  |  | 112 | 149 | 393
AUAGUUUCCGAAGGAUAUGAUGAGGAUCACCCAUCAGAAGGUUGGCUAUUGGGCUGACAUGAGGAUCACCCAUGUUCCGGUGUU (Eterna round: R96, puzzle: Same State NG 1) |  |  |  | 33.7 | 31.9 | 43.3
AUCAUUAAUGCAGGAUAUGAUUAACAUGAGGAUCACCCAUGUGGUGUUGUGAGUAAGGAGAGUGAUCAGAAGGGCAUUUUUUUU [JMF's solution 35] (Eterna round: R96, puzzle: Same State NG 2) |  |  |  | 699 | 292 | 469
AUCCUACAUGAGGAUCACCCAUGUGACGCCUCAAUAGGAUAUGCGUGUGCCUUGGCGCAUGCAGAAGGAUUGAAGC [JL Aveso mod 1] (puzzle: Same State 1) |  | 295 |  |  |  | 
AUGAAGAAUUAAGGAUAUUGAUUACAUAUGUUUAACAUGAGGAUCACCCAUGUGGGUUGCGGUAUCGAGAAGGUAAAUUAAUAG [Mat - same State NG 2 - JL mod - D84] (Eterna round: R96, puzzle: Same State NG 2) |  |  |  | 187 | 129 | 196

Sequence | apparent KD of MS2 coat protein [1] [nM] | apparent KD of MS2 coat protein [2] [nM] | apparent KD of MS2 coat protein [3] [nM] | apparent KD of MS2 coat protein (input ligand: FMN 200 uM) [nM] | apparent KD of MS2 coat protein [4] [nM] | apparent KD of MS2 coat protein (input ligand: none) [nM]
AUGAAUUUGCGAGGAUAUCGUUUGUUGAAGUUACGAGAAGGCGCUCACUUUACAUGAGGAUCACCCAUGUUUAUGAUAUAUGAU [JR_SSNG1_Sub074] (Eterna round: R96, puzzle: Same State NG 1) |  |  |  | 24.1 | 30 | 37.1
AUUAAACAUGAGGAUCACCCAUGUCAACAAAGUCGAGGAUAUGGGCAAAUUAAAUAAGAACCAGAAGGCGAAUAAU [salish99_ss1_r3_060] (puzzle: Same State 1) | 35.9 | 189 | 269 |  |  | 
AUUAAUUAAUUAAUACAUGAGGAUCACCCAUGUAAUAAGAUCAAGGAUAUCAGCUCGAAUAGAGCUGAGAAGGUGAUCACAUGU [SSNG3/17-B1] (Eterna round: R96, puzzle: Same State NG 3) |  |  |  |  | 337 | 
AUUAUACAUGAGGAUCACCCAUGUAAUUAAUCUAGUAAGAUCUAGGAUAUCAGCUCGAUUAGAGCUGAGAAGGAGAUCACAUGU [SSNG3/20-D2] (Eterna round: R96, puzzle: Same State NG 3) |  |  |  |  | 42.9 | 
AUUAUACAUGAGGAUCACCCAUGUAAUUAAUUAAUUAAGAUCAAGGAUAUCAGCUCGAUUAGAGCUGAGAAGGUGAUCACAUGU [SSNG3/20-B2] (Eterna round: R96, puzzle: Same State NG 3) |  |  |  |  | 170 | 
AUUAUUAAUGCAGGAUAUGAUUAACAUGAGGAUCACCCAUGUGGUGUUGUGAGUAAGGAGAGUGAUCAGAAGGGCAUUUUUUUU [JMF's solution 6] (Eterna round: R96, puzzle: Same State NG 2) |  |  |  |  | 463 | 
AUUAUUUCAUGAGGAUAUGGCACCUUAUUGGUGCCAGAAGGCAUGUCUAUUGACAUGAGGAUCACCCAUGUAUUAAAUUAUAUA [Eli NG1ss - 89] (Eterna round: R96, puzzle: Same State NG 1) |  |  |  |  | 387 | 
AUUCGAUAGAUAGGAUAUCACCAUACAUGAGGAUCACCCAUGUUGACCACGCUGGUUAUUCAUACUGAGAAGGAUCUUGAUGAC [JR_SSNG2_Sub005] (Eterna round: R96, puzzle: Same State NG 2) |  |  |  | 27.8 | 31.1 | 52.2
AUUGCUAUCACAGGAUAUCAUGCGAAAAUCGCGUGAGAAGGGUGGACUCUGUCAUUCACGGAGGACAUGAGGAUCACCCAUGUC [SS NG10LRO16] (Eterna round: R96, puzzle: Same State NG 1) |  |  |  | 363 | 18.9 | 45.8
AUUGGGUAACGAGGAUAUCGUUUUUGUUUUUUUCGAGAAGGCGUUAUAGUUUCUUUCUAUUGUUACAUGAGGAUCACCCAUGUU [JR_SSNG1_Sub053] (Eterna round: R96, puzzle: Same State NG 1) |  |  |  | 15.8 | 16.2 | 16.5
AUUGUUAAUGCAGGAUAUGAUUAACAUGAGGAUCACCCAUGUGGUGUUGUGAGUAAGGAGAGUGAUCAGAAGGGCAUUUUUUUU [JMF's solution 31] (Eterna round: R96, puzzle: Same State NG 2) |  |  |  | 826 | 810 | 616
AUUUAACAAGCUUUUUGCUCGUCUUAUAAACAUGAGGAUCACCCAUGUAAUAGCGUGAGAGUAAAUAAUUUAAUAAU [JMF 98] (puzzle: Sensor for hsa-mir-208a) | 12.9 | 53.2 |  |  |  | 
AUUUUUAAUGCAGGAUAUGAUUAACAUGAGGAUCACCCAUGUGGUGUUGUGAGUAAGGAGAGUGAUCAGAAGGGCAUUUUUUUU [JMF's solution 30] (Eterna round: R96, puzzle: Same State NG 2) |  |  |  | 726 | 354 | 456
AUUUUUUAUGCAGGAUAUGAUUAACAUGAGGAUCACCCAUGUGGUGUUGUGAGUAAGGAGAGUGAUCAGAAGGGCAUUUUUUUU [JMF's solution 68] (Eterna round: R96, puzzle: Same State NG 2) |  |  |  | 579 | 318 | 401
CACCAGAGAGCAGGAUAUGGGCCACGGCCUAAGGGCUGUGAACUCACAUGAGGAUCACCCAUGUCCCAGAAGGGCUCCUGGCUA [Getiised] (Eterna round: R96, puzzle: Same State NG 2) |  |  |  | 98.3 | 602 | 842
CACGUCUCGGUAGGAUAUGAGGUGCCAUAGGGAACAGCCUAUGGACAUGAGGAUCACCCAUGUCCUCAGAAGGGCCGGACGUGA [Leonis] (Eterna round: R96, puzzle: Same State NG 2) |  |  |  | 18.1 | 48.9 | 68.2
